PMC11883000, “Structure-function relationship of ASH1L and histone H3K36 and H3K4 methylation” (Nature Communications, 2025)
pKd: −log10 of the molar value.

Target: Substitution of D2595 or D2584 with alanine (ASH1L PHD finger mutants)
Assay: not stated; wild type and mutants of ASH1LPHD with H3K4me3 peptide (Fig. 3c, Supplementary Figs. 5 and 6); the legend names tryptophan fluorescence, MST or NMR, which for each mutant is marked only in the figure

**Q.** With “histone H3K4me3 peptide (aa 1-12 of H3) (from UniProt P68431 2-13)” as the substance, how does the pKd read?
**A.** 5.15 to 5.30
